Drawing on patent publication US20220396632A1 (VERSEAU THERAPEUTICS, published 2022), this text covers EC50 for three molecules.

A value given as a limit tells only on which side of the number the result lay.

B1: 03D07 (antibody, IgG4, V domains shown)
VH: EVKLLESGGGLVQPGGSLRLSCAASGFTFSSYALSWVRQAPGKGLEWVSAISGSGGNTYYADSVKGRFTISRDNSKNTLYLQMNSLRAEDTAVYYCAKVVGATNYWGQGTLVTVSS
VL: DIVMTQTPLSLPVTLGQPASISCRSSQSLVYSDGHTYLSWFHQRPGQSPRRLIYKVSIRDSGVPDRFSGSGSGTDFTLKISRVEAEDVGVYYCMQRLQIPLTFGGGTKVEIK
B2: 10F01 (antibody, IgG4, V domains shown)
VH: EVQLVQSGGGLVQPGGSLRLSCAASGFTFSSYAMSWVRQAPGKGLEWVSALRGGDGGTYHADSVKGRFTISGDSSKNTLYLQMNSLRAEDTAVYYCARRMVGAAYAFDIWGQGTMVTVSS
VL: LPVLTQPHSVSESPGKTVTISCTRSSGSIADNFVQWYRQRPGSAPTTVIYEGDQRPSGVPGRFSGSIDSSSNSASLTISGLQTDDEADYYCQSFDSYNRRTHVVFGGGTKLTVL
B3: 20I15 (antibody, V domains shown)
VH: EVKLVESGGGLVQPGGSLSLSCAASGFTFTDYYMSWVRQPPGKALEWLGFIRNKANGYTTEYSASVKGRFTISRDNSQSILYLQMNALRAEDSATYYCARTYLRRGYFDVWGTGTTVTVSS
VL: DIVLTQSPASLAVSLGQRATISCRASKSVSTSGYSYMHWFQQKPGQPPKLLIYLASNLESGVPARFSGSGSGTDFTLNIHPVEEEDAATYYCQHSRELPLTFGAGTKLELK
notes: From mouse immunisation; only variable domains given; also called 20115

The first test addresses T1, Biotin PSGL-1(42-62) peptide, unmodified (human, C-terminal Lys-biotin).
T1 construct: Residues 42-62 followed by GGGK-biotin; also called WT; wild-type
T1 peptide: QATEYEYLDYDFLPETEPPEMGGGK
Kind of test: ELISA, plate-bound target. How it is done: (§1) Two ELISA methods were performed. One procedure detected mAb binding to its plate-immobilized target and the other measured the immobilized antibody's ability to capture biotinylated PSGL-1₄₂₋₆₂. […] The plate was incubated for 45 min at 37° C. Plates were washed 3 times with wash buffer (PBS containing 0.05% tween 20, pH 7.4) and a single concentration (2 to 500 nM) or serially diluted (0.002-100 nM) anti-PSGL-1 mAb was added (25 ul/well) in assay buffer into appropriate wells. The plate was incubated for 45 min at 37° C., washed 3 times, and an appropriate HRP-conjugated secondary antibody added (25 ul/well) (HRP goat anti-mouse or anti-human IgG). After 45 min incubation at 37° C., the plate was washed, and antibody bound to plate-immobilized target was determined at A450 nm using HRP substrate (3,3′,5,5′-etramethylbenzidine (TMB)). For each antibody, duplicate values were averaged and assay background was subtracted. Except for the following, ELISAs involving plate-immobilized mAb capturing of biotinylated PSGL-1₄₂₋₆₂ peptides was performed in the same manner as described above: 3 ug/mL/25 ul per well of mAb was coated directly onto microtiter plate wells; biotinylated unmodified or sulfotyrosine PSGL-1₄₂₋₆₂ was serially diluted (3 nM-3 uM) into appropriate wells, and antibody-bound peptide was detected using HRP-streptavidin (Jackson Immunoresearch, Cat. #016-030-084).
Background: In an ELISA, binding on a coated surface is turned into a signal by an enzyme label.
In the case of B1, the EC50 – broadly, the concentration needed to bring the measured effect to its halfway point – is above 20000 pM.
In turn, B2 came in with a concentration giving a half-maximal response (EC50) above 500000 pM.
On the same count and under the same terms, the figure for B3 is around 30000 pM.

The target of another test is T2, Biotin Y46,48,51(SO3) PSGL-1(42-62) peptide (human, sulfotyrosine at Y46, Y48 and Y51; C-terminal Lys-biotin).
T2 construct: also called fully sulfated N-terminal PSGL-1 peptide
T2 peptide: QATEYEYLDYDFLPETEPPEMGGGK
Kind of test: ELISA, plate-bound target. As for the experimental part:
as §1
In the case of B1, the EC50 is 130 pM.
Regarding B2, the EC50 came out at 130 pM.
Still for that read-out and setting: the figure for B3 is 620 pM.
